Source: US7217686B1, “DNA sequence encoding oncofetal ferritin protein” (Gardino Investment N.V., priority 1999, dated 2007)
“And” between values parts separate entries of the source, which are not always exact repeats. Equal entries are not always repeated.

Legend:
[1] = tested on: human bone marrow progenitor CFU-GM; assay: CFU-GM colony assay with normal human bone marrow mononuclear cells; type: cell-based; settings: for number of CFU-GM colonies: scored after 14 days
Method: Bone marrow samples from 11 healthy volunteer donors were processed by density gradient separation using […] (Sigma diagnostics, St. Louis, Mo., USA) to obtain a purified population of mononuclear cells. Colony assays were performed in a plating medium containing final concentrations of 0.92% methyl cellulose (M-281 powder, 4,000 centipoise, Fisher Scientific Co., Fair Lawn, N.J., USA), rehydrated in Iscove's modified Dulbecco's medium containing 36 mM sodium bicarbonate (Gibco, Grand Island, N.Y., USA), 30% fetal bovine serum (FBS) (HyClone, Logan, Utah, USA) 0.292 mg/ml glutamine, 100 U/ml penicillin and 0.01 mg/ml streptomycin (Biological Industries, Beit Haemek, Israel). Growth factors used were […] GM-CSF Leucomax (Sandoz Pharma) and 5% vol/vol human phytohemagglutinin-M (Difco Laboratories, Detroit, Mich., USA)-induced conditioned medium (Cond. Med.) p43 (PLF) was added at concentration of 1 μg/mL and in neutralization experiments, p43 (PLF) was preincubated with 10× excess of CM-H-9 MoAb at 37° C. for 30 min and the complex added to the assay as above. The colony assay medium contained 10^5 mononuclear cells/ml and each 1 ml was plated into triplicate wells (333 μl/well) of a 24 well tissue culture plate (Greiner, Germany). Water was added to spaces between cells to maximize humidity during incubation of the cultures. The cultures were incubated at 37° C. in 5% CO2 and 55% relative humidity. Plates were scored after 14 days for colonies containing more than 50 cells.

[2] = tested on: C57Bl Donor lymphocytes in transplanted Balb/c mice; assay: Bone marrow transplantation C57Bl into Balb/c, flow cytometry for donor K^b positive cells; type: in vivo; settings: Balb/c BMT treated with OFF1 (ex vivo 1 μg/ml, 10 μg i.p. for 14 days); 6 weeks post transplantation; results not shown
Source text: Animals: C57BL/6 (H2^b) and BALB/c (H2^d) mice were purchased from Harlane. Donors and recipients were 8–10 wk of age at the time of BMT. All mice were housed in a specific pathogen-free facility in microisolator cages.
Ex-vivo induction of anergy in mixed lymphocyte reaction (MLR): C57Bl donor bone marrow (responder) was harvested 2 days before transplantation. Balb/c recipient (stimulator) spleen cells were irradiated at a midplane dose of 3300 cGy. The cells were resuspended in RPMI-1640 medium with 5% mouse serum to 4×10^6/ml and incubated with 1 μg/ml of OFF1 for 30 min.
The erythrocyte depleted mononuclear cell fraction of the marrow was resuspended at a concentration of 4×10^6/ml in the above medium in a Donor:Recipient ratio of 1:1. The cells were cultured in tissue culture flasks for 36 hours at 37° C. in 5% CO2, washed and resuspended to 2×10^7 cells/1 ml in PBS containing OFF1 (1 μg/ml).
Bone marrow Transplantation (BMT): Balb/c recipients were sublethely irradiated by exposing mice to 5;5 GRAY total body irradiation from a ^137Cesium source at a dose rate of 85 cGY/min.
Day 2 MLR cultured cells (10^7/0.5 ml) were injected intravenously to BALB/c mice pretreated with OFF1 ((10 μg) injected i.p.) (BMT+OFF1). […]
All results were obtained using FACS (Beckton Dickenson). […] 10,000 cells were analyzed for each determination.

[3] = tested on: splenocytes from Balb/c mice transplanted with C57Bl bone marrow; assay: MLR of splenocytes from bone marrow transplanted Balb/c mice against alloantigens; type: cell-based
Source text: (§1) Immunologic assay: Splenocytes from bone marrow transplanted (BMT) Balb/c mice were reacted as above in MLR against the donor C57Bl splenocytes or against non-related splenocytes, to measure their immunoresponsiveness to the corresponding alloantigens.
Splenocytes obtained from Balb/c mice (K^b) treated with BMT+PBS (control) and with BMT+OFF1 were used as responder cells (R) and were reacted with C57Bl (K^b) splenocytes as stimulator cells (S) in MLR.

[4] = tested on: splenocytes from Balb/c mice transplanted with C57Bl bone marrow; assay: In-vitro OFF1 treatment of splenocytes from transplanted Balb/c mice in MLR; type: cell-based
Source text: as §1
In further experiments we tested the in-vitro effect of OFF1 treatment on responsiveness of splenocytes from control BMT+PBS against both donor C57Bl stimulators and against ICR stimulators.

[5] = 11 donors, Cond. Med. 5% vol/vol, p43 (PLF) 1 μg/ml, GM-CSF 15 ng/ml

B1: OFF1: oncofetal ferritin 1 protein, purified from term placenta, termed also p43 (placental isoferritin, PLF) (protein)
chain: MTTASTSQVRQNYHQDSEAAINRQINLELYASYVYLSMSYYFDRDDVALKNFAKYFLHQSHEEREHAEKLMKLQNQRGGRIFLQDIKKPDCDDWESGLNAMECALHLEKNVNQSLLEFPSPISPSPSCWHHYTTNRPQPQHHLLRPRRRKRPHSIPTPILIFRSP
modifications: left off: a dimerising Fc or GST
- MEDIAN number of CFU-GM colonies [1, 5]: 94
- RANGE of number of CFU-GM colonies [1, 5]: 0–748
- mean number of CFU-GM colonies (AVG.) [1, 5]: 169+/−216 and 169
- number of CFU-GM colonies ([1]; Bone Marrow No. 1, Cond. Med. 5% vol/vol, p43 (PLF) 1 μg/ml, GM-CSF 15 ng/ml): 280
- number of CFU-GM colonies ([1]; Bone Marrow No. 2, Cond. Med. 5% vol/vol, p43 (PLF) 1 μg/ml, GM-CSF 15 ng/ml): 748
- number of CFU-GM colonies ([1]; Bone Marrow No. 3, Cond. Med. 5% vol/vol, p43 (PLF) 1 μg/ml, GM-CSF 15 ng/ml): 152
- number of CFU-GM colonies ([1]; Bone Marrow No. 4, Cond. Med. 5% vol/vol, p43 (PLF) 1 μg/ml, GM-CSF 15 ng/ml): 28
- number of CFU-GM colonies ([1]; Bone Marrow No. 5, Cond. Med. 5% vol/vol, p43 (PLF) 1 μg/ml, GM-CSF 15 ng/ml): 94
- number of CFU-GM colonies ([1]; Bone Marrow No. 6, Cond. Med. 5% vol/vol, p43 (PLF) 1 μg/ml, GM-CSF 15 ng/ml): 6
- number of CFU-GM colonies ([1]; Bone Marrow No. 7, Cond. Med. 5% vol/vol, p43 (PLF) 1 μg/ml, GM-CSF 15 ng/ml): 0
- number of CFU-GM colonies ([1]; Bone Marrow No. 8, Cond. Med. 5% vol/vol, p43 (PLF) 1 μg/ml, GM-CSF 15 ng/ml): 242
- number of CFU-GM colonies ([1]; Bone Marrow No. 9, Cond. Med. 5% vol/vol, p43 (PLF) 1 μg/ml, GM-CSF 15 ng/ml): 8
- number of CFU-GM colonies ([1]; Bone Marrow No. 10, Cond. Med. 5% vol/vol, p43 (PLF) 1 μg/ml, GM-CSF 15 ng/ml): 210
- number of CFU-GM colonies ([1]; Bone Marrow No. 11, Cond. Med. 5% vol/vol, p43 (PLF) 1 μg/ml, GM-CSF 15 ng/ml): 94
- concentration giving the highest number of CFU-GM colonies ([1]; dose response, bone marrow progenitor cells from three donors (FIG. 10)): 1 μg/1 mL
- Mean CFU-GM following preincubation with MoAb CM-H9 ([1]; p43 (PLF) 1 μg/mL preincubated with 10× excess of CM-H-9 MoAb at 37° C. for 30 min): 7+/−10
- K^b positive donor cells in bone marrow and spleen [2]: development of hematopoietic chimerism
- P.I. (Proliferation Index), BMT + OFF1, in-vitro treatment None ([3]; Stimulator C57Bl): 1.3
- P.I. (Proliferation Index), BMT + OFF1 ([3]; Stimulator C57Bl, S/R Ratio 0): 1
- P.I. (Proliferation Index), BMT + OFF1 ([3]; Stimulator C57Bl, S/R Ratio 0.2): 1.3
- P.I. (Proliferation Index), BMT + OFF1 ([3]; Stimulator C57Bl, S/R Ratio 1): 1
- P.I. (Proliferation Index), BMT + OFF1 ([3]; Stimulator C57Bl, S/R Ratio 4): 1.1
- P.I. (Proliferation Index), BMT + OFF1, in-vitro treatment None ([3]; Stimulator ICR): 9.6
- P.I. (Proliferation Index), BMT + OFF1 ([3]; Stimulator ICR, S/R Ratio 0): 1
- P.I. (Proliferation Index), BMT + OFF1 ([3]; Stimulator ICR, S/R Ratio 0.2): 1.8
- P.I. (Proliferation Index), BMT + OFF1 ([3]; Stimulator ICR, S/R Ratio 1): 2.6
- P.I. (Proliferation Index), BMT + OFF1 ([3]; Stimulator ICR, S/R Ratio 4): 9.6
- response of splenocytes of BMT+OFF1 chimeric mice to donor C57Bl stimulators in MLR ([3]; any S/R ratios): completely anergic
- P.I. (Proliferation Index), BMT + OFF1, in-vitro treatment OFF1 ([4]; Stimulator C57Bl): 1.3
- P.I. (Proliferation Index), BMT + PBS, in-vitro treatment OFF1 ([4]; Stimulator C57Bl): 1
- P.I. (Proliferation Index), BMT + OFF1, in-vitro treatment OFF1 ([4]; Stimulator ICR): 4.7
- P.I. (Proliferation Index), BMT + PBS, in-vitro treatment OFF1 ([4]; Stimulator ICR): 3.5
